Drawing on article doi:10.1101/2022.07.22.501112 (2022), this text covers Kd for 1 molecule.

Numbered stars: 1 amine (or outer) side, 2 acyl side, 3 side chain; on linkers, the order of the positions; unused ones are H or OH. Square brackets hold non-standard residues; d marks the D form. Ends that are not written are not given here. Lys(Me3) = C[N+](C)(C)CCCC[C@H](N)C(=O)O; Ethylenediamine = C(CN[*:2])N[*:1]; 5‑FAM = fluorescent label

In this assay the target is T1, E. coli expressed BAHD1(aa:588-780) (UniProt Q8TBE0 588-780).
T1 chain: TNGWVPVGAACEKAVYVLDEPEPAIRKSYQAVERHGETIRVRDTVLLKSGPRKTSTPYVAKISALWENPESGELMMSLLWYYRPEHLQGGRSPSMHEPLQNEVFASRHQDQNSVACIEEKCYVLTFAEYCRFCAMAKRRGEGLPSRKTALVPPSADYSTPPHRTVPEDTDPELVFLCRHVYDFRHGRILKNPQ
The assay is described as follows: FP.

As to PRKQLATKAAR[Lys(Me3)]SAPATGG-{Ethylenediamine-4‑Abu-5‑FAM} [H3 16-35 K27me3 peptide], the Kd (in general, the equilibrium constant for the complex coming apart) came to 700 nM.
